This is an account of results in patent US20250115677A1, “Anti-CEA Antibody Drug Conjugates and Methods of Use” (BeiGene Switzerland GmbH, priority 2022, published 2025).

Where a chain is given by its changes, count along the chain named. In names and notes the source's numbering stands.

For assay [1], the target named is T1, recombinant soluble human CEA (extracellular domain, AA 1-687 of huCEA, C-terminal 6xHis) (human, UniProt P06731 35-687).
T1 construct: also called sCEA; soluble CEA
T1 sequence: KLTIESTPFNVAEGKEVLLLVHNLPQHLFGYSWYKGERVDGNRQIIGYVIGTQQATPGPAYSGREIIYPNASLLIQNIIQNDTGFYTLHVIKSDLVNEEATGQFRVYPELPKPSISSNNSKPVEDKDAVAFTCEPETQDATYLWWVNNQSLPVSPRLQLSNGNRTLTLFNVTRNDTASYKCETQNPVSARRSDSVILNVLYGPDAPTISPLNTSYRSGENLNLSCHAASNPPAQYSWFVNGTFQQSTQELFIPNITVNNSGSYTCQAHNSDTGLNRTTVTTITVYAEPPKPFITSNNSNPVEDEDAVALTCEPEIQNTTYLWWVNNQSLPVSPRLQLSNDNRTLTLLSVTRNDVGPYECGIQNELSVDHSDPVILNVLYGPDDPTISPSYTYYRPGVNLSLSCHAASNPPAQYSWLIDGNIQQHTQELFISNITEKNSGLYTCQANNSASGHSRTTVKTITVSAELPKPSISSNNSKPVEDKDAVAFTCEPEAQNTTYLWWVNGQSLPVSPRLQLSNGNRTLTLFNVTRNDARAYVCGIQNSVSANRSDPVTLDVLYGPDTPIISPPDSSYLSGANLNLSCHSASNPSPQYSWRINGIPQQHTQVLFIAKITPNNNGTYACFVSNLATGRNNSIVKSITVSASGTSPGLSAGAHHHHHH
Description: SPR; kinetics on huCEA, IgG format.

The target in assay [2] is T2, human CEA on cells (MKN45, LOVO, NCI-H2122, LS174T, CT26/CEA) (human, UniProt P06731 35-685).
T2 sequence: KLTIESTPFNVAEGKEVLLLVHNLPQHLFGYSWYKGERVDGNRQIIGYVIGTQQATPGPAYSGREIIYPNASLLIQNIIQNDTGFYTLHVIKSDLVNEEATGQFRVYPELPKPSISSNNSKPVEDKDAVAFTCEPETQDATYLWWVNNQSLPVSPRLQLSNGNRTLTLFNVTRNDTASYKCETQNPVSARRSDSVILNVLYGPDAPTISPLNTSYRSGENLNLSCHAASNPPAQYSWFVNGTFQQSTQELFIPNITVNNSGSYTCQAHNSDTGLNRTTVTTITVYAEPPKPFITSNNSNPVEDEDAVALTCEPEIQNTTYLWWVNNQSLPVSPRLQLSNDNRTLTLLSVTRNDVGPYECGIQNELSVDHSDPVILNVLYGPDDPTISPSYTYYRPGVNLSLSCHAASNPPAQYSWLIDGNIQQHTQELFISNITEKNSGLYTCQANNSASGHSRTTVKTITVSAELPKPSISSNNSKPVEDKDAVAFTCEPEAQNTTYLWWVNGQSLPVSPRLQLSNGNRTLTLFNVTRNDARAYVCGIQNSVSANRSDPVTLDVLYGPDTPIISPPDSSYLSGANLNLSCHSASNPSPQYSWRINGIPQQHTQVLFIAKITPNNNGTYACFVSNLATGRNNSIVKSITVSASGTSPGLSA
Description: cell-based or functional assay.

For assay [3], the target named is T2, human CEA on cells (MKN45, LOVO, …). The assay can be described thus: cell-based or functional assay. This is another data set of the same source.
Assay [4] has the same target. Description: cell-based or functional assay. This is another data set of the same source.
Assay [5] shares this target. Description: flow cytometry on MKN45 cells.
The target of assay [6] is T3, chimeric construct (CHIM) (human).
T3 construct: CEACAM6 AA 1-273 joined to the membrane-peripheral region containing domain B3 of CEA (AA 596-687), C-terminal 6xHis; also called chimeric CEA
T3 chain: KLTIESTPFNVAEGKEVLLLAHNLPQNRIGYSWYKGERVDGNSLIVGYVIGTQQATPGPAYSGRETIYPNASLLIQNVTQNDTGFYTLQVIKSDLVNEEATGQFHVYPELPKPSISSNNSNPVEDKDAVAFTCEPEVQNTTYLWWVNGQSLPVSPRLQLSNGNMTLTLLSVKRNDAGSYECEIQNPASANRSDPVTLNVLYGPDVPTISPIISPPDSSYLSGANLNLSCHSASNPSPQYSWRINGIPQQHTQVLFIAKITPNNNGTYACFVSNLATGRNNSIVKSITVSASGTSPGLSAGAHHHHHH
The assay can be described thus: SPR; binding to CHIM.

B1: BGA6710 variant K13E, Y57K (antibody, V domains shown)
VH: QVQLVQSGAEVKEPGASVKVSCKASGYIFTSYYLHWVRQAPGQGLEWIGYINPQTGKTSYAQKFQGRVTMTRDTSTSTVYMELSSLRSEDTAVYYCAREYGNYNYPLDYWGQGTLVTVSS
VL: DIQMTQSPSSLSASVGDRVTITCRASENQYGYLAWYQQKPGKVPKLLIYNYKNLVEGVPSRFSGSGSGTDFTLTISSLQPEDVATYYCQHHLGTPYTFGQGTKVEIK
notes: IgG format; both changes in the heavy chain
B1: in assay [1], the Kd worked out at 1.34 nM.

B2: BGA2490 (antibody, human IgG1, kappa, V domains shown)
VH: B1 VH with E13K
VL: DIQMTQSPSSLSASVGDRVTITCRASENQYGYLAWYQQKPGKVPKLLIYNYKNLVEGVPSRFSGSGSGTDFTLTISSLQPEDVATYYCQHHLGTPYTFGQGTKVEIKR
modifications: linker-payload conjugated after reduction of the antibody, DAR 8 profile (structure only as a drawing in Table 18)
On to B2, for which, in assay [2], the “EC50, cell killing of NCI-H2122 cells” value was 0.19 nM and the “Emax, cell killing of NCI-H2122 cells” value turned out to be 82.8. Moreover, in assay [3], the “EC50, cell killing of MKN45 cells” value stood at 0.44 nM and the “Emax, cell killing of MKN45 cells” value amounted to 89. In assay [4], the “EC50, cell killing of LS174T cells” value amounted to 0.76 nM and the “Emax, cell killing of LS174T cells” value was 70.3.

B3: BGA2588 (BGA5384 conjugated with DXD) (antibody, human IgG1, kappa, V domains shown)
VH: B1 VH with E13K
VL: B2 VL
modifications: DXD linker-payload conjugated after reduction of the antibody, DAR 8 profile (structure only as a drawing in Table 18)
Take B3: in assay [2], the “EC50, cell killing of NCI-H2122 cells” value was 0.22 nM and the “Emax, cell killing of NCI-H2122 cells” value is 74. In assay [3], the “EC50, cell killing of MKN45 cells” value stood at 0.46 nM and the “Emax, cell killing of MKN45 cells” value amounted to 85. Also, in assay [4], the “EC50, cell killing of LS174T cells” value is 1.12 nM and the “Emax, cell killing of LS174T cells” value stood at 69.7.

B4: BGA8357 (antibody, human IgG1, kappa, V domains shown)
VH: B1 VH with E13K
VL: B2 VL
modifications: linker-payload conjugated after reduction of the antibody, DAR 8 profile (structure only as a drawing in Table 18)
For the molecule B4, in assay [2], the “EC50, cell killing of NCI-H2122 cells” value was determined as 0.14 nM and the “Emax, cell killing of NCI-H2122 cells” value came to 83.9. Also, in assay [3], the “EC50, cell killing of MKN45 cells” value is 0.38 nM and the “Emax, cell killing of MKN45 cells” value was determined as 89.1. For the same molecule, in assay [4], the “EC50, cell killing of LS174T cells” value came out at 0.67 nM and the “Emax, cell killing of LS174T cells” value was found to be 71.8.

B5: BGA0084 (antibody, human IgG1, kappa, V domains shown)
VH: B1 VH with E13K
VL: B2 VL
modifications: linker-payload conjugated after reduction of the antibody, DAR 8 profile (structure only as a drawing in Table 18)
Regarding B5, in assay [2], the “EC50, cell killing of NCI-H2122 cells” value was 0.19 nM and the “Emax, cell killing of NCI-H2122 cells” value was determined as 83.8. Moreover, in assay [3], the “EC50, cell killing of MKN45 cells” value is 0.38 nM and the “Emax, cell killing of MKN45 cells” value is 88.8. In assay [4], the “EC50, cell killing of LS174T cells” value amounted to 0.85 nM and the “Emax, cell killing of LS174T cells” value came out at 69.9.

B6: BGA9962 (antibody, human IgG1, kappa, V domains shown)
VH: B1 VH with E13K
VL: B2 VL
modifications: linker-payload conjugated after reduction of the antibody, DAR 8 (structure only as a drawing in Table 18)
As for B6, in assay [2], the “EC50, cell killing of NCI-H2122 cells” value was determined as 0.17 nM and the “Emax, cell killing of NCI-H2122 cells” value came out at 80. For the same molecule, in assay [3], the “EC50, cell killing of MKN45 cells” value is 0.39 nM and the “Emax, cell killing of MKN45 cells” value stood at 87.1. In addition, in assay [4], the “EC50, cell killing of LS174T cells” value was 0.83 nM and the “Emax, cell killing of LS174T cells” value amounted to 66.7.

B7: BGA7413 (antibody, human IgG1, kappa, V domains shown)
VH: B1 VH with E13K
VL: B2 VL
modifications: linker-payload conjugated after reduction of the antibody, DAR 8 profile (structure only as a drawing in Table 18)
Turning to B7, the “Emax, cell killing of NCI-H2122 cells” value in assay [2] turned out to be 81.5. Further, in assay [3], the “EC50, cell killing of MKN45 cells” value is 0.46 nM and the “Emax, cell killing of MKN45 cells” value worked out at 87.2. In assay [4], the “EC50, cell killing of LS174T cells” value worked out at 0.88 nM and the “Emax, cell killing of LS174T cells” value was found to be 66.9.

B8: BGA6710 variant L92E (antibody, V domains shown)
VH: B1 VH with E13K, K57Y
VL: B1 VL with L92E
notes: IgG format; L92E in the light chain
As for B8, in assay [1], the Kd is 4.5 nM, the koff amounted to 0.000188 s⁻¹ and the kon amounted to 41700 M⁻¹ s⁻¹. In assay [5], this molecule yielded a concentration giving a half-maximal response (EC50) of 1.19 µg/mL and a Top of 945.

B9: BGA6710 variant L92E, Y57K (antibody, V domains shown)
VH: B1 VH with E13K
VL: B1 VL with L92E
notes: IgG format
As for B9, in assay [1], the Kd stood at 5.29 nM, the koff was determined as 0.000177 s⁻¹ and the kon is 33400 M⁻¹ s⁻¹. For the same molecule, in assay [5], the midpoint of the response, the EC50, lay at 1.09 µg/mL and the Top was 970.

B10: BGA6710 variant Y57D (antibody, V domains shown)
VH: B1 VH with E13K, K57D
VL: B1 VL
notes: IgG format; change in the heavy chain
For B10, in assay [1], the Kd was found to be 1.82 nM, the koff came to 0.000195 s⁻¹ and the kon was 107000 M⁻¹ s⁻¹. In assay [5], this molecule registered an EC50 of 0.56 µg/mL and a Top of 949.

B11: BGA6710 variant Q54E, Y57K (antibody, V domains shown)
VH: B1 VH with E13K, Q54E
VL: B1 VL
notes: as for B1
For the molecule B11, in assay [1], the Kd turned out to be 2.36 nM, the koff is 0.00026 s⁻¹ and the kon is 110000 M⁻¹ s⁻¹. In addition, in assay [5], the EC50 amounted to 0.58 µg/mL and the Top worked out at 902.

B12: BGA1789 (antibody, human IgG1, V domains shown)
VH: B1 VH with E13K, Y33W, K57Y
VL: B1 VL
notes: Built on the BGA7592-1F-ph-M (BGA2433) template; human IgG1/kappa
With B12, in assay [6], binding was characterised by a dissociation constant (Kd) of 14.4 nM, the off-rate constant (koff) is 0.000463 s⁻¹ and the kon turned out to be 32100 M⁻¹ s⁻¹.

B13: BGA6710 variant Q54E, Y57E (antibody, V domains shown)
VH: B1 VH with E13K, Q54E, K57E
VL: B1 VL
notes: as for B1
Consider B13, for which, in assay [1], the Kd came out at 2.14 nM, the off-rate constant (koff) was 0.00025 s⁻¹ and the kon came to 117000 M⁻¹ s⁻¹. In assay [5], this molecule registered an EC50 of 0.65 µg/mL and a Top of 927.
